# Measurements published in the nanobody polyreactivity screen of Harvey et al. (2022).
# Assay: yeast display, Sf9 membrane polyspecificity reagent, FACS + sequencing; frameworks hold sequencing errors
# Procedure, shortened: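 Synthetic nanobody libraries on Saccharomyces cerevisiae BJ5465 were galactose-induced for 36–48 hours, stained 1 hour at 4 °C with 10% biotinylated, detergent-solubilized Sf9 membrane reagent and enriched on streptavidin microbeads. FACS then separated cells into low and high (top ~1%) gates by anti-HA (expression) and streptavidin (reagent binding) fluorescence. Genes were colony-PCR amplified, MiSeq 2 × 250 sequenced and CDR-length filtered. A clone's polyreactivity label is that of its gate of origin.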
row,Sequence,polyreactivity (PSR sort gate)
1,QVQLVESGGGLVQAGGSLRLSCAASGSTFSRYAMGWYRQAPGKERELVAAISSRGGSTYYADSVKGRFTISRDNAKNTVYLQMNSLKPEDTAVYYCNALTSYQNHVYPYDYWGQGTEVTVSS,high polyreactivity
2,QVQLVESGGGLVQAGGSLRLSCAASGSTFSRYAMGWYRQAPGKERELVAAITRSGGGTHYADSVKGRFTISRDNAKNTVYLQMNSLKPEDTAVYYCATDYTKYPTGYYYWGQGTQVTVSS,low polyreactivity
3,QVQLVESGGGLVQAGGSLRLSCAASGSTFSRYSMGWYRQAPGKERELVAAITGRGGRTYYADSVKGRFTISRDNAKKTVYLQLNSLKPEDTAVYYCAAYYGPYRSLYYYWGQGNQVTVSS,high polyreactivity
4,QVQLVESGGGLVQAGGSLRLSCAASGSTFSRYTMGWYRQAPGKERELVAVITRRGGSTYYADSVKGRFTISRDNAKNTVYLQMNSLKPADTAVYYCAADYKYPIDYGYWGQGTQVTVSS,high polyreactivity
5,QVQLVESGGGLVQAGGSLRLSCAASGSTFSSNAMGWYRQAPGKEREFVAAISRRTGSTYYADSVKGRFTISRDNANNTVYLQMNSLKPEDTAVYYSAATGEKLARSSFGYWGQGTQVTVSS,low polyreactivity
6,QVQLVESGGGLVQAGGSLRLSCAASGSTFSSNAMGWYRQAPGKERELVAAISKRGGRTYYADSVKGRFTISRDNAKNTVYLQMNSLKPEDTAVYYCAKDYSSAVDYWGQGTQVTVSS,high polyreactivity
7,QVQLVESGGGLVQAGGSLRLSCAASGSTFSSYAMGWYRQAPGKERELVAAISSSGGTSTYADSVKGRFTISRDNAKNTVYLQMNSLKPEDTAVYYCAARQYRRLRDYRHDYWGQGTQVTVSS,high polyreactivity
8,QVQLVESGGGLVQAGGSLRLSCAASGSTFSSYAMGWYRQAPGKERELVAAISYSGGSTYYADSVKGRFTISRDNAKNTVYLQMNSLKPEDTAVYYCAAVGTWQHRSYGYWGQGTQVTVSS,high polyreactivity
9,QVQLVESGGGLVQAGGSLRLSCAASGSTFSSYAMGWYRQAPGKERELVAAITSGTRTYYADSVKGRFTISRDNAKNTVYFQMNSLKPEDTAVYYCAAPTSSSGRYHRYYYWVQGTQVTVSS,high polyreactivity
10,QVQLVESGGGLVQAGGSLRLSCAASGSTFSSYAMGWYRQAPGKERELVAAITSRGSRTFYADSVKGRFTISRDNAKNTVYLQMNSLKPEDTAVYYCAAYFRIGTFGQYDYWGQGTQVTVSS,high polyreactivity
11,QVQLVESGGGLVQAGGSLRLSCAASGSTFSSYGMGWYRQAPGKERELVAAISKRGGSTYYADSVKGRFTISRDNAKNTVYLQMNSLKPEDTAVYYCAARYRLYYYFRFDWGQGTHVTVSS,high polyreactivity
12,QVQLVESGGGLVQAGGSLRLSCAASGSTFSSYVMGWYRQAPGKERELVAGITRGGRTYYADSVKGRFTISRDNAKNTGYLQMNSLKPEDTAVYYCAKDQGGVHELDYWGQGTQVTVSS,low polyreactivity
13,QVQLVESGGGLVQAGGSLRLSCAASGSTFSTYAMGWYRQAPGKERELVARITRSDTGTYYADSVKGRFTISRDNAKNTVYLQMNSLKPEDTAVYYCAADGWYDDSGWYYGYDYWGQGTQVTVSS,low polyreactivity
14,QVQLVESGGGLVQAGGSLRLSCAASGSTFSVYAMGWYRQAPGKERELVARITGGSTYADSVKGRFTISRDNAKNTVYLQMNSLKPEDTAVYFCNAYRYWSPGYDYWGQGTQVTVSS,low polyreactivity
15,QVQLVESGGGLVQAGGSLRLSCAASGSTFSWNTMGWYRQAPGKERELVADIRTSGGGTYYADSVKGRFTISRDNAKNSVYLQMNSLKPEDTAVYYCNGDPKWEMVSWGQGTQVTVSS,low polyreactivity
16,QVQLVESGGGLVQAGGSLRLSCAASGSTFSWYAMGWYRQAPGKERELVASISWRGGSTYYADSVKGRFTISRDNAKNTVSLQMNSLKPEDTAVYYCAADYDWKLFHEPPAVYDYDYWGQGTQVTVSS,low polyreactivity
17,QVQLVESGGGLVQAGGSLRLSCAASGSTFSYNAMGWYRQAPGKERELVAAIDANGGSTYYADSVKGRFTISRDNAKNTVYVQMNSLKPEDTAVYYCAAAGYWYYYVPNDSWGQGTQVTVSS,low polyreactivity
18,QVQLVESGGGLVQAGGSLRLSCAASGSTFSYNAMGWYRQAPGKERELVAAIRWGGGSTYYADSVKGRFTISCDNAKNTVYLQMNSLKPEDTAVYYCARYGYRRVGSRWAEFDYWGQGTQVTVSS,high polyreactivity
19,QVQLVESGGGLVQAGGSLRLSCAASGSTFSYNAMGWYRQAPGKERELVAAISRGGITNYADSVKGRFTISRDNAKNTVYLQMNSLKPEDTAVYYCAVRHVWPWQGYDYWGQGTQVTVSS,low polyreactivity
20,QVQLVESGGGLVQAGGSLRLSCAASGSTFSYNAMGWYRQAPGKERELVAAITSSGSSTYYADSVKGRFTISRYNAKNTVYLQMNSLKPEDTAVYYCNAEVLFVAGQVQRNSGDYWGQGTQVTVSS,low polyreactivity
21,QVQLVESGGGLVQAGGSLRLSCAASGSTFSYNAMGWYRQAPGKERELVASISTSGGSTYYADSVKGRFTISRDNAKNTVYLQMNSLKPEDTAVYYCNAPTSDMYSDFDYWGQGTQVTVSS,low polyreactivity
22,QVQLVESGGGLVQAGGSLRLSCAASGSTFSYNTMGWYRQAPGKERELVASNTRSGGSTNYADSVKGRFTISRDNAKNTVYLQMNSLKPEDTAVYYCAKDYISVWNVRASDYYWYDYWGQGTQVTVSS,low polyreactivity
23,QVQLVESGGGLVQAGGSLRLSCAASGSTFSYYAMGWYRQAPGKERELVAAITRSGGRTYYADSVKGRFTISRDNAKNTVYLQMNSLKPEDTAVYYCAALSVGTRRDYWGQGTQVTVSS,low polyreactivity
24,QVQLVESGGGLVQAGGSLRLSCAASGSTFSYYAMGWYRQAPGKERELVASITWNGARTYYADSVKGRFTISRDNAKNTVYLQMNSLKPEDTAVYYCADRHKYAFWTAFGNYWGQGTQVTVSS,high polyreactivity
25,QVQLVESGGGLVQAGGSLRLSCAASGSTFSYYAMGWYRQAPGKERELVAVISRGGSTNYADSVKGRFTISRDNAKNTVYLQMNSLKPEDTAVYYCAAYVLPWRGRGQTEYGYWGQGTQVTVSS,low polyreactivity
26,QVQLVESGGGLVQAGGSLRLSCAASGSTFSYYAMGWYRQAPVKERELVAAITSGGGRTYYADSVKGRFTISRDNAKNTVYLQMNSLKPEDTAVYYCNALSTLYNGYDYWGQGTQVTVSS,high polyreactivity
27,QVQLVESGGGLVQAGGSLRLSCAASGSTFSYYTMGWYRQAPGKERELVAAISKSGGITYYADSVKGRFTISRDNAKNTVYLQMNSLKPEDTAVYYCAADGGYYDDDYWGQGTQVTVSS,high polyreactivity
28,QVQLVESGGGLVQAGGSLRLSCAASGSTFSYYTMPWYRQAPGKERELVAAISRSGANTHYADSVKGRFTISRDNAKITVYLQMNSMKPEDTAVYYCAKVHSGRHYDYWGQGTQVTVSS,high polyreactivity
29,QVQLVESGGGLVQAGGSLRLSCAASGSTFTANAMGWYRQAPGKERELVAAISDTTGNTYYADSVKGRFTISRDNAKNTVYLQMNSLKPEDTAVYYCAARQFKSDIVVSLVDSWGQGTHVTVSS,low polyreactivity
30,QVQLVESGGGLVQAGGSLRLSCAASGSTFTGNAMGWYRPAPGKERELVADITWSDGSTDYADSVKGRFTISRDNAKNTVYLQMNSLKPDDTAVYYCNARITYYVGTAWYDYWGQGTQVTVSS,low polyreactivity
